From US20090252683A1 (Amgen, published 2009) come the findings set out here.

The target of the assay is T1, human EGFR on A431 cells (human, UniProt P00533 25-1210).
T1 construct: whole, on cells
Put plainly: FACS, A431 cells, 1 µg/ml purified protein, anti-His detection. The method, then:
In order to test the functionality of the cross-species specific bispecific antibody constructs with regard to binding capability to human and cynomolgus EGFR and CD3, respectively, a FACS analysis was performed. For this purpose the EGFR positive epidermoid carcinoma A431 cells (ATCC, CRL-1555) and CD3 positive human T cell leukemia cell line HPB-ALL (DSMZ, Braunschweig, ACC483) were used to check the binding to human antigens. The binding reactivity to cynomolgus antigens was tested by using the generated cynomolgus EGFR transfectants described in Example 20 and cynomolgus PBMCs which were obtained by Ficoll density gradient centrifugation. 200,000 cells of the respective cell population were incubated for 30 min on ice with 50 μl of the purified protein of the cross-species specific bispecific antibody constructs (1 μg/ml). The cells were washed twice in PBS and binding of the construct was detected with an unlabeled murine Penta His antibody (diluted 1:20 in 50 μl PBS with 2% FCS; Qiagen; Order No. 34660). After washing, bound anti His antibodies were detected with an Fc gamma-specific antibody (Dianova) conjugated to phycoerythrin, diluted 1:100 in 50 μl PBS with 2% FCS. Fresh culture medium was used as a negative control.
Cells were analyzed by flow cytometry on a FACS-Calibur apparatus (Becton Dickinson, Heidelberg). FACS staining and measuring of the fluorescence intensity were performed as described in Current Protocols in Immunology (Coligan, Kruisbeek, Margulies, Shevach and Strober, Wiley-Interscience, 2002).

B1: EGFR HL × SEQ ID NO. 170 (bispecific antibody)
chain: QVQLQQSGPDLVKPGASVKMSCKASGHTFTDCVIIWVKQRAGQGLEWIGQIYPGTGRSYYNEIFKGKATLTADKSSNTVHIQLSSLTSEDSAVYFCALSTLIHGTWFSYWGQGTLVTVSSGGGGSGGGGSGGGGSDIVLTQSPASLPVSLGQRATISCRASQSVSSSTYSYIHWYQQKPGQPPKLLITYASNLESGVPARFSGSGSGTDFTLDIHPVEEDDSSTYYCQHSWEIPFTFGSGTKLEIKSGGGGSEVQLVESGGGLVQPGGSLKLSCAASGFTFNTYAMNWVRQAPGKGLEWVARIRSKYNNYATYYADSVKDRFTISRDDSKNTAYLQMNNLKTEDTAVYYCVRHGNFGNSYVSWFAYWGQGTLVTVSSGGGGSGGGGSGGGGSQTVVTQEPSLTVSPGGTVTLTCRSSTGAVTTSNYANWVQQKPGQAPRGLIGGTNKRAPGTPARFSGSLLGGKAALTLSGVQPEDEAEYYCALWYSNLWVFGGGTKLTVLHHHHHH
notes: the appendix prints the entry with HHHHHH and then *VD (stop and vector residues) at its end
With B1, the binding result is on record as “binds”.

B2: EGFR LH × SEQ ID NO. 170 (bispecific antibody)
chain: DIVLTQSPASLPVSLGQRATISCRASQSVSSSTYSYIHWYQQKPGQPPKLLITYASNLESGVPARFSGSGSGTDFTLDIHPVEEDDSSTYYCQHSWEIPFTFGSGTKLEIKGGGGSGGGGSGGGGSQVQLQQSGPDLVKPGASVKMSCKASGHTFTDCVIIWVKQRAGQGLEWIGQIYPGTGRSYYNEIFKGKATLTADKSSNTVHIQLSSLTSEDSAVYFCALSTLIHGTWFSYWGQGTLVTVSSGGGGSEVQLVESGGGLVQPGGSLKLSCAASGFTFNTYAMNWVRQAPGKGLEWVARIRSKYNNYATYYADSVKDRFTISRDDSKNTAYLQMNNLKTEDTAVYYCVRHGNFGNSYVSWFAYWGQGTLVTVSSGGGGSGGGGSGGGGSQTVVTQEPSLTVSPGGTVTLTCRSSTGAVTTSNYANWVQQKPGQAPRGLIGGTNKRAPGTPARFSGSLLGGKAALTLSGVQPEDEAEYYCALWYSNLWVFGGGTKLTVLHHHHHH
notes: the appendix prints the entry with HHHHHH and then *VD at its end
As to B2, the binding result is on record as “binds”.

B3: EGFR HL × SEQ ID NO. 194 (bispecific antibody)
chain: QVQLQQSGPDLVKPGASVKMSCKASGHTFTDCVIIWVKQRAGQGLEWIGQIYPGTGRSYYNEIFKGKATLTADKSSNTVHIQLSSLTSEDSAVYFCALSTLIHGTWFSYWGQGTLVTVSSGGGGSGGGGSGGGGSDIVLTQSPASLPVSLGQRATISCRASQSVSSSTYSYIHWYQQKPGQPPKLLITYASNLESGVPARFSGSGSGTDFTLDIHPVEEDDSSTYYCQHSWEIPFTFGSGTKLEIKSGGGGSQTVVTQEPSLTVSPGGTVTLTCRSSTGAVTTSNYANWVQQKPGQAPRGLIGGTNKRAPGTPARFSGSLLGGKAALTLSGVQPEDEAEYYCALWYSNLWVFGGGTKLTVLGGGGSGGGGSGGGGSEVQLVESGGGLVQPGGSLKLSCAASGFTFNTYAMNWVRQAPGKGLEWVARIRSKYNNYATYYADSVKDRFTISRDDSKNTAYLQMNNLKTEDTAVYYCVRHGNFGNSYVSWFAYWGQGTLVTVSSHHHHHH
notes: as for B2
In the case of B3, the binding result is given as “binds”.

B4: EGFR LH × SEQ ID NO. 194 (bispecific antibody)
chain: DIVLTQSPASLPVSLGQRATISCRASQSVSSSTYSYIHWYQQKPGQPPKLLITYASNLESGVPARFSGSGSGTDFTLDIHPVEEDDSSTYYCQHSWEIPFTFGSGTKLEIKGGGGSGGGGSGGGGSQVQLQQSGPDLVKPGASVKMSCKASGHTFTDCVIIWVKQRAGQGLEWIGQIYPGTGRSYYNEIFKGKATLTADKSSNTVHIQLSSLTSEDSAVYFCALSTLIHGTWFSYWGQGTLVTVSSSGGGGSQTVVTQEPSLTVSPGGTVTLTCRSSTGAVTTSNYANWVQQKPGQAPRGLIGGTNKRAPGTPARFSGSLLGGKAALTLSGVQPEDEAEYYCALWYSNLWVFGGGTKLTVLGGGGSGGGGSGGGGSEVQLVESGGGLVQPGGSLKLSCAASGFTFNTYAMNWVRQAPGKGLEWVARIRSKYNNYATYYADSVKDRFTISRDDSKNTAYLQMNNLKTEDTAVYYCVRHGNFGNSYVSWFAYWGQGTLVTVSSHHHHHH
notes: as for B2
Regarding B4, the binding result is reported as “binds”.
